Series [1] addresses T1, FMO-2 (Caenorhabditis elegans, UniProt G5EBJ9).
T1 construct: purified FMO-2 protein purchased from GenScript
T1 sequence (G5EBJ9 1-529): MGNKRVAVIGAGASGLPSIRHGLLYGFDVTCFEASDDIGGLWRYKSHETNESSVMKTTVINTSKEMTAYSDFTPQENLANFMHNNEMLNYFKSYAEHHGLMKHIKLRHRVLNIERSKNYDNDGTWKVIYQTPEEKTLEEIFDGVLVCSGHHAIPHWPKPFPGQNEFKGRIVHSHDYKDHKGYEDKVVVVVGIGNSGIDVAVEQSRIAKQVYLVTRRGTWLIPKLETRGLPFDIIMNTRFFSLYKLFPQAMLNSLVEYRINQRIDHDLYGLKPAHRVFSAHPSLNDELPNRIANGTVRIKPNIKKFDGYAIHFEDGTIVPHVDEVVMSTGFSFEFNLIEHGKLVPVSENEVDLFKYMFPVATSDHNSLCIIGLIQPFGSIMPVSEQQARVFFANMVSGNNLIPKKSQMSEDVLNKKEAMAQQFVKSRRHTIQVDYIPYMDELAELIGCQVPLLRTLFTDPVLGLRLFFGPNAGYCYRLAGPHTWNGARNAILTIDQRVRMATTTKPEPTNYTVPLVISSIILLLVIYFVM
Description: NADPH consumption at […] nm, Michaelis-Menten fit. Format: biochemical. The settings on record: 0.5 mM NADPH, excess FAD, 25 mM sodium phosphate pH 8.5, 0.5 mM DETAPAC, 30 C; 0.1-10 mM substrate.

Substrate in series [2]: CC(=O)C(=O)O
In words: purified protein. The settings on record: 0.5 mM NADPH, excess FAD, 25 mM sodium phosphate pH 8.5, 0.5 mM DETAPAC, 30 C. Format: biochemical, Caenorhabditis elegans.

The Km is the concentration of substrate that gives half-maximal velocity. The kcat is the maximal rate divided by the concentration of active sites. In general, kcat/Km refers to the second-order rate constant that governs catalysis at low substrate concentration.

On to `N[C@@H](Cc1c[nH]c2ccccc12)C(=O)O` [tryptophan], for which the Km in series [1] was 880 ± 430 µM.

B1: FMO-2 (Caenorhabditis elegans) (protein)
chain: MGNKRVAVIGAGASGLPSIRHGLLYGFDVTCFEASDDIGGLWRYKSHETNESSVMKTTVINTSKEMTAYSDFTPQENLANFMHNNEMLNYFKSYAEHHGLMKHIKLRHRVLNIERSKNYDNDGTWKVIYQTPEEKTLEEIFDGVLVCSGHHAIPHWPKPFPGQNEFKGRIVHSHDYKDHKGYEDKVVVVVGIGNSGIDVAVEQSRIAKQVYLVTRRGTWLIPKLETRGLPFDIIMNTRFFSLYKLFPQAMLNSLVEYRINQRIDHDLYGLKPAHRVFSAHPSLNDELPNRIANGTVRIKPNIKKFDGYAIHFEDGTIVPHVDEVVMSTGFSFEFNLIEHGKLVPVSENEVDLFKYMFPVATSDHNSLCIIGLIQPFGSIMPVSEQQARVFFANMVSGNNLIPKKSQMSEDVLNKKEAMAQQFVKSRRHTIQVDYIPYMDELAELIGCQVPLLRTLFTDPVLGLRLFFGPNAGYCYRLAGPHTWNGARNAILTIDQRVRMATTTKPEPTNYTVPLVISSIILLLVIYFVM
notes: purified FMO-2 protein purchased from GenScript
On to B1, for which, in series [2], the Km is 0.59 ± 0.29 mM, the kcat was found to be 35 ± 1 s⁻¹ and the kcat/Km is 59000 M⁻¹ s⁻¹.

The values above are taken from paper PMC12551704, “Metabolic regulation of behavior by the intestinal enzyme FMO-2” (Science Advances, 2025).
